Patent publication US20170246212A1, “METHODS TO UPREGULATE AND SUPPRESS AN EXPRESSION OF IMMUNOMODULATORY CELLS” (National Health Research Institutes, priority 2014, published 2017)

B1: rhIL-25: Human recombinant IL-25 (PeproTech); IL-25 also known as IL17E (protein, UniProt Q9H293 33-177, looked up)
Interleukin-25: YSHWPSCCPSKGQDTSEELLRWSTVPVPPLEPARPNRHPESCRASEDGPLNSRAISPWRYELDRDLNRLPQDLYHARCLCPHCVSLQTGSHMDPRGNSELLYHNQTVFYRRPCHGEKGTHKGYCLERRLYRVSLACVCVRPRVMG

How the values were obtained:
[1] = test system: PD-L1 surface expression on monocytes; experiment: PD-L1 surface expression on human monocytes from PBLs, flow cytometry; format: cell-based; conditions: for IL-25-mediated induction of PD-L1 in human primary monocytes: inhibitor pretreatment (WP1066 2.5 μM; SP600125 25 μM; PD98059 20 μM; LY294002 10 μM; Akt inhibitor III 10 μM), then 100 ng/ml rhIL-25 for 18 hours
Procedure: FIG. 9. IL-25-mediated PD-L1 expression in human monocytes and hMSCs is mediated through JNK and STAT3 with STAT3 involved in transcriptional control of PD-L1. (A) Human PBLs were pretreated with inhibitors of STAT3 (WP1066; 2.5 μM), JNK (SP600125; 25 μM), or MEK1 (PD98059; 20 μM) prior to 100 ng/ml rhIL-25 for 18 hours, with subsequent flow cytometric analysis for PD-L1 surface expression on monocytes, gated using FSC and SSC. Filled histograms represent isotype control. Unfilled histograms represent PD-L1 antibody staining. Pooled data (3 donors) provided in (B) with bars representing MFI. hMSCs were treated with inhibitors of (C) STAT3 (WP1066; 2.5 μM) and (D) JNK (SP600125; 25 μM) for 6 hours, and subsequently assessed by flow cytometric analysis for PD-L1 surface expression. Pooled data (all 3 donors) for each respective inhibitor provided (left charts) with bars representing MFI. (D) Putative GAS elements (STAT-binding sites) in the proximal promoter region of human PD-L1 gene; 700 bp region upstream from the transcription start site), as determined with TFSearch web-based software. (E) Binding of STAT3 or IgG (negative control) in hMSCs was analyzed by chromatin immunoprecipitation (ChIP) with promoter-specific primers for region 1 and region 2. The input samples (positive control) represent 1% starting chromatin. (F) Schematic of model of hMSC-mediated suppression of Th17 responses involving IL-25/STAT3/PD-L1 axis.
FIG. 10. Involvement of signal pathways for IL-25-induced expression of PD-L1 in human peripheral blood monocytes. (A) Pooled data (3 donors) of PD-L1 expression (shown as MFI) after MEK inhibition. (B) Human peripheral blood monocytes were pretreated with inhibitors of PI3K (LY294002; 10 μM) or Akt (Akt inhibitor III; 10 μM), followed by 100 ng/ml IL-25 stimulation. After IL-25 treatment for 18 hours, the expression of PD-L1 was assessed by cell surface staining. Pooled data (3 donors) provided in (C) of PD-L1 expression (shown as MFI). A.U., arbitrary units. […]

[2] = test system: PD-L1 surface expression on hMSCs; experiment: PD-L1 surface expression on hMSCs, flow cytometry; format: cell-based, human
Procedure: FIG. 7. IL-25 induces PD-L1 surface expression on hMSCs and human monocytes. (A) PD-L1 in siCtrl MSCs (left panel) and siPD-L1 MSCs (right panel) was analyzed by surface staining. (B) Freshly isolated human PBLs were co-cultured without (left panels) or with siCtrl MSCs (middle panels) or siPD-L1 MSCs (right panels) for 3 days, followed by PMA/ionomycin stimulation for 6 hours. IL-17A production in CD3^+ T cells was assessed by intracellular staining. Representative data shown with numbers in the top right quadrants representing the percentages of IL-17A-producing CD3^+ T cells. Pooled data from PBLs (n=4) and 2 hMSC donors (donors A & B) are provided in (C). Folds of reversed phenotypes of silL-25 and siPD-L1 are provided in (D). (E) PD-L1 expression on siCtrl hMSCs (left panel) and silL-25 hMSCs (right panel) was assessed by cell surface staining Filled histograms represent isotype control. […] Pooled data provided in (F) of PD-L1 expression (indicated by fold-change in mean fluorescence intensity; MFI) on silL-25-hMSCs and siPD-L1-hMSCs (all 3 donors). […] (G) hMSCs were treated with indicated doses of rhIL-25 for 18 hours and assessed for cell surface PD-L1 expression by cell surface staining. […] (H) Human PBLs were treated with indicated doses of rhIL-25 for 18 hours, and assessed for cell surface PD-L1 expression on monocytes, gated using FSC and SSC, by flow cytometric analysis. […]

[3] = test system: IL-17A production in CD3+ T cells; experiment: IL-17A production in CD4 T cells treated with rhIL-25, intracellular staining; format: cell-based, human; conditions: rhIL-25 alone for 18 hours, then PMA/ionomycin 6 hours
Procedure: FIG. 6. […] (A) Human CD4 T cells were treated with indicated doses of recombinant human IL-25 (rhIL-25) for 18 hours, followed by PMA/ionomycin stimulation for 6 hours. IL-17A production in CD3^+ T cells was assessed by intracellular staining. Numbers in the top right quadrants represent the percentages of IL-17A-producing CD3^+ T cells; (B) pooled data of 5 PBL donors. (C) Human CD4 T cells (n=4) were co-cultured without or with hMSCs (2 donors: B & C) in the absence or presence of transwell barriers. Pooled data from healthy donors are provided in (D). Data are shown as means±SD. **, p<0.01; n.s., not significant. […]
Cells were stained with antibodies as indicated: anti-human IL-25-PE (R&D Systems), mouse IgG1 isotype control-PE (R&D Systems), anti-human CD3-PE/Cy5 (BioLegend), anti-human CD4-PE (BioLegend), anti-human IL-17A-PE (eBioscience), anti-human IFN-γ-FITC (BioLegend), anti-human IL-22-PE (eBioscience), anti-human FOXP3-Alexa Fluor 488 (BD Pharmingen), anti-human CD274 […]-PE (eBioscience), mouse IgG1 isotype control-PE (eBioscience), anti-human IL-25R-PE (R&D Systems), and mouse IgG2b isotype control-PE (R&D Systems), anti-mouse CD4-APC (eBioscience), anti-mouse CD3e-PE/Cy5 (eBioscience), and anti-mouse/rat IL-17A-PE (eBioscience). Data was collected on BD FACSCalibur™ (BD Biosciences) instruments and analyzed with Cell Quest Pro software (BD Biosciences).

[4] = test system: myeloid-derived suppressor cells (MDSCs) in peripheral blood leukocytes; experiment: Expansion of CD14-CD11b+CD33+ MDSCs from human PBLs by IL-25; format: cell-based; conditions: allogeneic PBL (2 donors), various doses of IL-25
Procedure: FIG. 11. IL-25 expands […] myeloid-derived suppressor cells (MDSCs) in peripheral blood leukocytes (PBLs). Expansion of CD14^−CD11b^+CD33^+ cells from human PBLs by recombinant human IL-25. Allogeneic PBL (2 donors) were cultured alone or with addition of various doses of IL-25 as indicated. PBL were first gated on forward scatter (FSC)/side scatter (SSC) (R1) then analyzed for CD14^− and CD11b^+ (R2), and further analyzed for CD33^+ (R3, cell percentages denoted).
To further confirm that IL-25 can induce expansion of MDSCs from peripheral blood, Allogeneic PBL (2 donors) were cultured alone or with addition of various doses of IL-25 as indicated (FIG. 11). The treated cells were first gated on forward scatter (FSC)/side scatter (SSC) (R1) then analyzed for CD14^− and CD11b^+ (R2), and further analyzed for CD33^+ (R3, cell percentages denoted).

Row | Molecule | IL-25-mediated induction of PD-L1 in human primary monocytes [1] | PD-L1 expression in hMSCs ([2]; inhibitor for 6 hours (WP1066 2.5 μM; SP600125 25 μM)) | PD-L1 expression in monocytes ([1]; human PBLs treated with rhIL-25, indicated doses, 18 hours, dose-dependent) | surface expression of PD-L1 on hMSCs ([2]; exogenous rhIL-25, indicated doses, 18 hours) | suppression of Th17 responses (IL-17A in CD4 T cells) [3] | expansion of MDSCs in PBLs [4]
1 | COc1cccc(-c2cc(=O)c3ccccc3o2)c1N [PD98059] | minimal effect |  |  |  |  | 
2 | C[C@H](NC(=O)/C(C#N)=C/c1cccc(Br)n1)c1ccccc1 [WP1066, reference compound] | substantially abolished | strongly reduced |  |  |  | 
3 | B1 |  |  | dramatically and significantly increased | further upregulate surface expression of PD-L1 on hMSCs but not to a significant extent | failed to suppress Th17 responses to a significant extent | expands
